Assay results as given in patent US20230212587A1, “Mutant Hydroxyphenylpyruvate Dioxygenase Polypeptide, Encoding Gene Thereof and Use Therefor” (Beijing Dabeinong Biotechnology Co., Ltd., priority 2019, published 2023).

Tested on: Arabidopsis thaliana T1 plants
Assay: Topramezone tolerance of transgenic Arabidopsis thaliana T1 plants (pesticide damage grade by bleached leaf area, score, resistance evaluation)
Format: in vivo
Conditions: HPPDs from different species, 7 DAT; for Classification and statistics of pesticide damage grade Grade 0 / Classification and statistics of pesticide damage grade Grade 1 / Classification and statistics of pesticide damage grade Grade 2 / Classification and statistics of pesticide damage grade Grade 3: number of plants (of 16) in this grade; for Scores: score for pesticide damage 0-100
Summary of the method: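 Herbicide tolerance was judged per plant on a bleaching scale (grade 0 no bleaching to grade 3 fully bleached) 7 DAT. Topramezone doses were 0, 25, 50 and 100 g ai/ha on 18-day-old T1 and wild-type plants.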

Molecule | Classification and statistics of pesticide damage grade Grade 0 (topramezone 25 g ai/ha (1x)) | Classification and statistics of pesticide damage grade Grade 1 (topramezone 25 g ai/ha (1x)) | Classification and statistics of pesticide damage grade Grade 2 (topramezone 25 g ai/ha (1x)) | Classification and statistics of pesticide damage grade Grade 3 (topramezone 25 g ai/ha (1x)) | Classification and statistics of pesticide damage grade Grade 0 (topramezone 100 g ai/ha (4x)) | Classification and statistics of pesticide damage grade Grade 1 (topramezone 100 g ai/ha (4x)) | Classification and statistics of pesticide damage grade Grade 2 (topramezone 100 g ai/ha (4x)) | Classification and statistics of pesticide damage grade Grade 3 (topramezone 100 g ai/ha (4x)) | Scores (topramezone 25 g ai/ha (1x)) | Scores (topramezone 100 g ai/ha (4x)) | Resistance evaluation (topramezone 25 g ai/ha (1x)) | Resistance evaluation (topramezone 100 g ai/ha (4x))
AtHPPD: native Arabidopsis thaliana HPPD, SEQ ID NO: 23 (protein, listed as Arabidopsis thaliana, Arabidopsis thaliana HPPD Amido Acid Sequence) MGHQNAAVSENQNHDDGAASSPGFKLVGFSKFVRKNPKSDKFKVKRFHHIEFWCGDATNVARRFSWGLGMRFSAKSDLSTGNMVHASYLLTSGDLRFLFTAPYSPSLSAGEIKPTTTASIPSFDHGSCRSFFSSHGLGVRAVAIEVEDAESAFSISVANGAIPSSPPIVLNEAVTIAEVKLYGDVVLRYVSYKAEDTEKSEFLPGFERVEDASSFPLDYGIRRLDHAVGNVPELGPALTYVAGFTGFHQFAEFTADDVGTAESGLNSAVLASNDEMVLLPINEPVHGTKRKSQIQTYLEHNEGAGLQHLALMSEDIFRTLREMRKRSSIGGFDFMPSPPPTYYQNLKKRVGDVLSDDQIKECEELGILVDRDDQGTLLQIFTKPLGDRPTIFIEIIQRVGCMMKDEEGKAYQSGGCGGFGKGNFSELFKSIEEYEKTLEAKQLVG | 0 | 0 | 0 | 16 | 0 | 0 | 0 | 16 | 100 | 100 | non-resistant (non-resistant plants (scores 68-100)) | non-resistant (non-resistant plants (scores 68-100))
SbHPPDm-F372A-02: Sorghum bicolor HPPD mutant F372A, SEQ ID NO: 66 (protein, SbHPPDm-F372A Amino Acid Sequence) MPPTPTTAAATGAAVAAASAEQAAFRLVGHRNFVRVNPRSDRFHTLAFHHVELWCADAASAAGRFSFGLGAPLAARSDLSTGNTAHASLLLRSGALAFLFTAPYAHGADAATASLPSFSAAEARRFAADHGLAVRAVALRVADAEDAFRASVAAGARPAFEPVELGLGFRLAEVELYGDVVLRYVSYPDDADASFLPGFVGVTSPGAADYGLRRFDHIVGNVPELAPAAAYFAGFTGFHEFAEFTAEDVGTTESGLNSMVLANNAENVLLPLNEPVHGTKRRSQIQTYLDHHGGPGVQHMALASDDVLRTLREMQARSAMGGFEFMAPPAPEYYDGVRRRAGDVLTEAQIKECQELGVLVDRDDQGVLLQIATKPVGDRPTLFLEIIQRIGCMEKDEKGQEYQKGGCGGFGKGNFSQLFKSIEDYEKSLEAKQAAAAQGS | 16 | 0 | 0 | 0 | 4 | 4 | 8 | 0 | 0 | 42 | highly resistant_ (highly resistant plants (scores 0-15)) | poorly resistant (poorly resistant plants (scores 34-67))
OsHPPD-02: native Oryza sativa HPPD, SEQ ID NO: 69 (protein, listed as Oryza sativa, OsHPPD Amino Acid Sequence) MPPTPTPTATTGAVSAAAAAGENAGFRLVGHRRFVRANPRSDRFQALAFHHVELWCADAASAAGRFAFALGAPLAARSDLSTGNSAHASLLLRSASVAFLFTAPYGGDHGVGADAATTASIPSFSPGAARRFAADHGLAVHAVALRVADAADAFRASVAAGARPAFQPADLGGGFGLAEVELYGDVVLRFVSHPDGADAPFLPGFEGVSNPGAVDYGLRRFDHVVGNVPELAPVAAYISGFTGFHEFAEFTAEDVGTAESGLNSVVLANNAETVLLPLNEPVHGTKRRSQIQTYLDHHGGPGVQHIALASDDVLGTLREMRARSAMGGFEFLAPPPPNYYDGVRRRAGDVLSEEQINECQELGVLVDRDDQGVLLQIFTKPVGDRPTFFLEMIQRIGCMEKDESGQEYQKGGCGGFGKGNFSELFKSIEEYEKSLEAKQAPTVQGS | 0 | 0 | 0 | 16 | 0 | 0 | 0 | 16 | 100 | 100 | non-resistant (non-resistant plants (scores 68-100)) | non-resistant (non-resistant plants (scores 68-100))
OsHPPDm-F372A-02: Oryza sativa HPPD mutant F372A, SEQ ID NO: 72 (protein, OsHPPDm-F372A Amino Acid Sequence) MPPTPTPTATTGAVSAAAAAGENAGFRLVGHRRFVRANPRSDRFQALAFHHVELWCADAASAAGRFAFALGAPLAARSDLSTGNSAHASLLLRSASVAFLFTAPYGGDHGVGADAATTASIPSFSPGAARRFAADHGLAVHAVALRVADAADAFRASVAAGARPAFQPADLGGGFGLAEVELYGDVVLRFVSHPDGADAPFLPGFEGVSNPGAVDYGLRRFDHVVGNVPELAPVAAYISGFTGFHEFAEFTAEDVGTAESGLNSVVLANNAETVLLPLNEPVHGTKRRSQIQTYLDHHGGPGVQHIALASDDVLGTLREMRARSAMGGFEFLAPPPPNYYDGVRRRAGDVLSEEQINECQELGVLVDRDDQGVLLQIATKPVGDRPTFFLEMIQRIGCMEKDESGQEYQKGGCGGFGKGNFSELFKSIEEYEKSLEAKQAPTVQGS | 8 | 8 | 0 | 0 | 0 | 0 | 0 | 16 | 17 | 100 | moderately resistant (moderately resistant plants (scores 16-33)) | non-resistant (non-resistant plants (scores 68-100))
